In patent US20220281967A1 (OREGA BIOTECH, published 2022) one finds binding result and EC50 data, which are given here for four molecules.

Experiment [1] has as its target T1, human IL-17B (R&D Systems, ref: 1248-IB/CF) (human, UniProt Q9UHF5 21-180).
T1 construct: Bought recombinant protein; also called hIL-17B; interleukin 17B
T1 sequence: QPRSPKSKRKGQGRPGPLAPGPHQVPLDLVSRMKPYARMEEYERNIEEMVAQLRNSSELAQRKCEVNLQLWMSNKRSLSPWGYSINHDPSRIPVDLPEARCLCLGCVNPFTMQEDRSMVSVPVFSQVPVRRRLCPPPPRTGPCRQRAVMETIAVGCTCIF
The experiment in a line: ELISA, human IL-17B coated on the plate, goat anti-mouse HRP detection.

In experiment [2] the target is T2, human IL-17B (R&D Systems, ref: 1248-IB/CF) (UniProt Q9UHF5 21-180).
T2 chain: T1 sequence
The experiment in a line: ELISA. (In general: An ELISA detects its analyte on a solid surface through an enzyme-linked reagent.)

B1: Antibody 21H6 (antibody, V domains shown)
VH: QVTLKESGPGILQPSQTLSLTCSFSGFSLSTFGMGVGWIRQPSGKGLEWLAHIWWDDDKYYNPALKGRLTISKDTSKNQVFLKIANVDTADTATYFCARIEDALDYWGQGTSVTVSS
VL: DIVMTQSPATLSVTPGDRVSLSCRASQNISDYLHWYQQKSHESPRLLIKYTSQSISGIPSRFSGSGSGSDFTLSINSVEPEDVGVYYCQNGHSFPFTFGSGTKLEIK
notes: Mouse monoclonal antibody directed against human IL-17B; also called mAb 21H6
Take B1: the binding result in experiment [1] is “binds”. Further, in experiment [2], the EC50 (in general, the concentration at which the effect is half-maximal) was 2.28 ng/mL.

B2: Antibody 18G9 (antibody, V domains shown)
VH: QITLKESGPGILKPSQTLSLTCSFSGFSLSTSGMGVGWIRQPSGKGLEWLAHIWWDDDKYYNPSLKSQLTISKDTSRNQVFLRITSVDTADTATYYCARRTQGYFDYWGQGTTLTVSS
VL: DILMTQSPASLAVSLGQRATISCKASQSVDYDGDSYMNWYQQKPGQPPKLLIYAASNLESGIPARFSGSGSGTDFTLNIHPVEEEDAATYYCQQSNEDPLTFGAGTKLELK
notes: Mouse monoclonal antibody directed against human IL-17B; also called mAb 18G9; 18G9a
Consider B2, for which the binding result in experiment [1] is given as “binds”. In experiment [2], the midpoint of the response, the EC50, lay at 6.88 ng/mL.

B3: Antibody 13H5 (antibody, V domains shown)
VH: QVTLKESGPGILQPSQTLSLTCSFSGFSLSTFGMGVGWIRQPSGKGLEWLAHIWWDDDKYYNPALKSRLTISKDTSKNQVFLKIANVDTADTATYYCARMNDGYLYYWGQGTSVTVSS
VL: QIVLTQSPAIMSASPGEKVTMTCSASSSVSYMYWYQQKPGSSPRLLIYDTSNLASGVPVRFSGSGSGTSYSLTISRMEAEDAATYYCQQWSSYPFTFGSGTKLEIK
notes: Mouse monoclonal antibody directed against human IL-17B; also called mAb 13H5
In the case of B3, the binding result in experiment [1] is reported as “binds”. Moreover, in experiment [2], a half-maximal effect (EC50) was put at 6.64 ng/mL.

B4: Antibody 12F9 (antibody, V domains shown)
VH: QVQLQQSGPELVKPGASVKISCKASGYTFTDYFINWVRQRPGQGLEWIGWIFPGSGSTYYHEKFKGKATLTVDKSSSTAYMLLSSLTSEDSAVYFCARTLYGNWYFDVWGTGTTVTVSS
VL: DVLMTQTPLSLPVSLGDQASISCRSSQSIVHSNGNTYLEWYLQKPGQSPKLLIYKVSNRFSGVPDRFSGSGSGTDFTLKISRVEAEDLGVYYCFQGSHVPYTFGGGTKLEIK
notes: Mouse monoclonal antibody directed against human IL-17B; also called mAb 12F9
Turning to B4, the binding result in experiment [1] is recorded as “binds”. Moreover, in experiment [2], the EC50 was determined as 13.7 ng/mL.
